Consider one molecule from PMC4822050, “Hemi-methylated DNA opens a closed conformation of UHRF1 to facilitate its histone recognition” (Nature Communications, 2016).

Holding throughout (assay): ITC; 0.05 mM protein in the cell, 0.5 mM protein or peptide in the syringe, iTC200, 18 °C, 10 mM HEPES pH 8.0, 100 mM NaCl
Details in all cases: both partners purified
In general terms: Isothermal titration calorimetry measures the heat released or taken up as one component is titrated into another.

Test [1] concerns the target T1, full-length UHRF1 (residues 1–793) (human, UniProt Q96T88 1-793).
T1 construct: human UHRF1, residues 1–793; monomer by gel filtration; also called wild-type UHRF1; ICBP90
T1 sequence (looked up): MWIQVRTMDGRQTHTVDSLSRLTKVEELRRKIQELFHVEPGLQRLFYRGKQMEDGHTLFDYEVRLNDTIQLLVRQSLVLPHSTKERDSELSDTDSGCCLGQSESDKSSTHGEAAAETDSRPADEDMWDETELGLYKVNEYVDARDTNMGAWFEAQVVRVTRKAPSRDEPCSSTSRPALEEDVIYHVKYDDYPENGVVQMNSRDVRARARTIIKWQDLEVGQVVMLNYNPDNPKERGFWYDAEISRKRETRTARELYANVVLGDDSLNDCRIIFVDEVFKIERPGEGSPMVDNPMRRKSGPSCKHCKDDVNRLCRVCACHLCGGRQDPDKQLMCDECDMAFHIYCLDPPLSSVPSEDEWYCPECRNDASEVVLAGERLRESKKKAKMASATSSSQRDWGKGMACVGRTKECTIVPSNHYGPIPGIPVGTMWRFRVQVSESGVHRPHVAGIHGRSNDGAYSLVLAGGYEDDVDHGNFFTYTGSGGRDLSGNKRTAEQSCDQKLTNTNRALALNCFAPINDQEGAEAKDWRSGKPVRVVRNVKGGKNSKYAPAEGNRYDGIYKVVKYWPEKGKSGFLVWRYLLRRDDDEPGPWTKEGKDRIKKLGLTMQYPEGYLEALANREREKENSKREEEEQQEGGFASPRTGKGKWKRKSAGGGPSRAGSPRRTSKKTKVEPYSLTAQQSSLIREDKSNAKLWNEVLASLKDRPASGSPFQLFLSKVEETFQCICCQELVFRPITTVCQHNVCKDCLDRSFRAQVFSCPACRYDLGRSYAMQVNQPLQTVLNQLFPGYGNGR

The target of a further test is T2, UHRF1^D334A&Δ627–674 (human, UniProt Q96T88 1-793, D334A | Δ627–674).
T2 construct: human UHRF1 (1–793)
T2 sequence (looked up): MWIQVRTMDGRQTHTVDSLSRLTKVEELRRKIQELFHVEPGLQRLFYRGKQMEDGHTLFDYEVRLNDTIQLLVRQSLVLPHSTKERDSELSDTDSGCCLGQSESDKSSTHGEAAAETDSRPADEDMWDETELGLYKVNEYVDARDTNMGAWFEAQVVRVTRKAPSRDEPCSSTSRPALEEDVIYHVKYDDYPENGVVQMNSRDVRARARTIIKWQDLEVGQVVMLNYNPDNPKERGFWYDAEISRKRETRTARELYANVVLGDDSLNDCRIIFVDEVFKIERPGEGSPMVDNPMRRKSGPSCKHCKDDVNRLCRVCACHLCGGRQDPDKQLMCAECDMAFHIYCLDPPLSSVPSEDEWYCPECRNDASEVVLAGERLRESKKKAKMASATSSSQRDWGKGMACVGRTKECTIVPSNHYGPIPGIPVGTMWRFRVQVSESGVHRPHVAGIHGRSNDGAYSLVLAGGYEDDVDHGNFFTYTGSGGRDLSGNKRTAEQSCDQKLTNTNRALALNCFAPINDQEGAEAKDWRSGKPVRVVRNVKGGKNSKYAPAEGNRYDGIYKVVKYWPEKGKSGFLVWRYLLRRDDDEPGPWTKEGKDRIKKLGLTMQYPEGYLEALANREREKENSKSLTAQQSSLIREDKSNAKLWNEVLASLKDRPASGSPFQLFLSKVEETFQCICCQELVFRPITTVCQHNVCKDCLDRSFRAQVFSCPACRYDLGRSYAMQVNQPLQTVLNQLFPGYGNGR

Test [2] has as its target T3, TTD–PHD of UHRF1 (residues 134–366) (human, UniProt Q96T88 134-366).
T3 sequence (looked up): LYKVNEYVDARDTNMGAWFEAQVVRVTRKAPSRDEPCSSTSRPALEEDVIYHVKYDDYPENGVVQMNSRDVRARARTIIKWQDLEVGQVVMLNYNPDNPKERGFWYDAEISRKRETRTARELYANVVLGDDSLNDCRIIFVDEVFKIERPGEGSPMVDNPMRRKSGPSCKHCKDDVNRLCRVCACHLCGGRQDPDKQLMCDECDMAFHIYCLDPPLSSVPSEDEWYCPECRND

Test [3] concerns the target T4, R295D/R296D mutant of full-length UHRF1 (human, UniProt Q96T88 1-793, R295D | R296D).
T4 construct: human UHRF1 (1–793)
T4 sequence (looked up): T1 sequence (looked up) with R295D, R296D

Where a chain is given by its changes, count along the chain named.

As usually defined, the Kd is the free concentration of one partner at which half of the binding sites on the other are occupied at equilibrium, for simple one-to-one binding. As to ARTKQTARKSTGGKAPR (peptide, UniProt P68431 2-18, looked up, trimethyl-lysine at K9, histone H3, residues 1–17) [H3K9me3 peptide (1–17)], the equilibrium dissociation constant (Kd) is 4.61 µM in test [1], 8.69 µM with UHRF1^D334A&Δ627–674 and 0.15 µM in test [2]. Besides, the “fold lower binding affinity than wild type” value in test [3] was determined as 8 fold.
